Consider two molecules from article PMC7242440 (2020).

In experiment [1] the target is Mpa (Mycobacterium tuberculosis) (UniProt P9WQN5). To be noted: cited from earlier work.
A further experiment deals with T1, Mpa (Mycobacterium tuberculosis, UniProt P9WQN5).
T1 chain: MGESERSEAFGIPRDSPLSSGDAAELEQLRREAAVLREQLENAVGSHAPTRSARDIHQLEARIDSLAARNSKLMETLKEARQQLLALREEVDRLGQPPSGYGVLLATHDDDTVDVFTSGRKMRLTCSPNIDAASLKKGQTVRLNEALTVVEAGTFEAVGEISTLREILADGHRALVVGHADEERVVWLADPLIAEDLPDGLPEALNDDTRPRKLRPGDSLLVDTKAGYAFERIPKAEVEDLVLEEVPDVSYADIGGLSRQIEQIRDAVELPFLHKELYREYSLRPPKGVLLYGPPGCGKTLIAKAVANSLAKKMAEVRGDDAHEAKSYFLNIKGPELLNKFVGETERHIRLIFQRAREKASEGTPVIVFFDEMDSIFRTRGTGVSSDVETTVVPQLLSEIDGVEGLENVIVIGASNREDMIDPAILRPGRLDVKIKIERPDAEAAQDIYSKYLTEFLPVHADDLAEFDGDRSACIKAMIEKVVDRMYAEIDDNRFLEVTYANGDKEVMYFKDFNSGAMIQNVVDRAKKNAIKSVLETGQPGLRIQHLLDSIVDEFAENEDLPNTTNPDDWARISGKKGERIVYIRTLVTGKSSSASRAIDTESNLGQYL
Nature of the experiment: NMR.

In the case of Pup (from UniProt P9WHN5), the dissociation constant (Kd) (commonly the concentration at which binding is half-saturated) in experiment [1] is 3.5 µM.

B1: Pup (protein)
chain: MAQEQTKRGGGGGDDDDIAGSTAAGQERREKLTEETDDLLDEIDDVLEENAEDFVRAYVQKGGQ
On to B1, for which the Kd with Mpa is ~28 µM.
